# B1: p88 (novel 88-kD protein) (natural protein)
# chain: HDGHDDDAIDIEDDLDDVIEEVEDSKSKSDASTPPSPKVTYKAPVPTGEVYFADSFDRGSLSGWILSKAKKDDTDDEIAKYDGKWEVDEMKETKLPGDKGLVLMSRAKHHAISAKLNKPFLFDTKPLIVQYEVNFQNGIECGGAYVKLLSKTAELSLDQFHDKTPYTIMFGPDKCGEDYKLHFIFRHKNPKTGVYEEKHAKRPDADLKTYFTDKKTHLYTLILNPDNSFEILVDQSVVNSGNLLNDMTPPVNPSREIEDPEDRKPEDWDERPKIADPDAVKPDDWDEDAPSKIPDEEATKPEGWLDDEPEYIPDPDAEKPEDWDEDMDGEWEAPQIANPKCESAPGCGVWQRPMIDNPNYKGKWKPPMIDNPNYQGIWKPRKIPNPDFFEDLEPFKMTPFSAIGLELWSMTSDIFFDNFIISGDRRVVDDWANDGWGLKKAADGAAEPGVVLQMLEAAEERPWLWVVYILTVALPVFLVILFCCSGKKQSNAMEYKKTDAPQPDVKDEEGKEEEKNKRDEEEEEEKLEEKQKSDAEEDGVTGSQDEEDSKPKAEEDEILNRSPRNRKPRRE
# What was measured:
# [1] = biological target: the class I heavy chains (H-2Kb, Db, Kd, and Ld; Fig. 9); assay: co-IP
# [2] = biological target: H-2Kb class I heavy chain (mouse (endogenous in EL4)); assay: cross-linking
# Chain of H-2Kb class I heavy chain (mouse (endogenous in EL4)) (P01901 22-369): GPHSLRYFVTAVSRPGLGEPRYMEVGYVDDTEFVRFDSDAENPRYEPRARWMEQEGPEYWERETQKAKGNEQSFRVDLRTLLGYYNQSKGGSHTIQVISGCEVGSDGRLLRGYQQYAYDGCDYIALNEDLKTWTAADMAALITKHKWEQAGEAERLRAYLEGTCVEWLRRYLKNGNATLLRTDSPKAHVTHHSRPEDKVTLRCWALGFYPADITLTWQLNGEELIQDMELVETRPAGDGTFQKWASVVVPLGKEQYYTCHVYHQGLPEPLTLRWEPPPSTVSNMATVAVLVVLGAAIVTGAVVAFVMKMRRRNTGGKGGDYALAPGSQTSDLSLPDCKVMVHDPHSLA
# [3] = biological target: H-2Db class I heavy chain (mouse (endogenous in EL4)); assay: cross-linking
# Chain of H-2Db class I heavy chain (mouse (endogenous in EL4)) (P01899 25-362): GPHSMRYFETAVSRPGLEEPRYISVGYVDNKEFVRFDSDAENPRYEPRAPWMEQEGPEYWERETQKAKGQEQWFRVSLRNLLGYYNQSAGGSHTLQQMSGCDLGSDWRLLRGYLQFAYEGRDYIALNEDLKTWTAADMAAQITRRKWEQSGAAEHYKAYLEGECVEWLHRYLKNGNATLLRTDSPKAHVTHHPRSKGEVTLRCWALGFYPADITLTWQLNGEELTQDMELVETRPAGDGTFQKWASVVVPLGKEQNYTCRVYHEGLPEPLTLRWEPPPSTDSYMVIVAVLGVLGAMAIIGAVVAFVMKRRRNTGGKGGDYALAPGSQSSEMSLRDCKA
# [4] = biological target: H-2Kd class I heavy chain (mouse (endogenous in MDAY-D2)); assay: cross-linking
# Chain of H-2Kd class I heavy chain (mouse (endogenous in MDAY-D2)) (P01902 22-368): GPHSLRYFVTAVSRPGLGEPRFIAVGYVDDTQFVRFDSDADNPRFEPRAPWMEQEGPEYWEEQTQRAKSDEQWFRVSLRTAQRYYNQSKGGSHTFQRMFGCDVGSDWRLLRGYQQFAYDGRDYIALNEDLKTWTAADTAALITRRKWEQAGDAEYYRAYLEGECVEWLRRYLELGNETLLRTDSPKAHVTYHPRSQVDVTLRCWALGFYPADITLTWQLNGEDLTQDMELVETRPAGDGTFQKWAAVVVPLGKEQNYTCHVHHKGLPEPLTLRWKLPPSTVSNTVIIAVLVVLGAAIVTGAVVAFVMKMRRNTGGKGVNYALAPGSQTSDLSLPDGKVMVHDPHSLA
# [5] = biological target: H-2Ld class I heavy chain (mouse (endogenous in MDAY-D2)); assay: cross-linking
# Chain of H-2Ld class I heavy chain (mouse (endogenous in MDAY-D2)) (P01897 25-362): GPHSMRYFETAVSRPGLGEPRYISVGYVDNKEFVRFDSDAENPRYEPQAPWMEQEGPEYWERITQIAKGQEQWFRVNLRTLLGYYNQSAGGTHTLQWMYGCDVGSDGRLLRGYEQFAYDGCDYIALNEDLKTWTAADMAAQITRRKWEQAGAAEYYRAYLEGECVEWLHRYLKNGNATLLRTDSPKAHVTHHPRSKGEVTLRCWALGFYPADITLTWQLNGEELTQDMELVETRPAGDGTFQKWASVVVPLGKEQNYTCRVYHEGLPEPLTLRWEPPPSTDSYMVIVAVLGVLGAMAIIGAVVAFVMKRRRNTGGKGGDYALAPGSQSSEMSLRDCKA
# [6] = biological target: the other three class I molecules (Bio-Gel A0.5m); assay: SEC
Molecule,half-time of association post pulse (in cells) [1] [min],half-time of disappearance of the complex after the pulse (in cells) [2] [min],half-time of p88 dissociation in the presence of BFA (in cells) [2] [min],half-time of disappearance of the complex after the pulse (in cells) [3] [min],half-time of p88 dissociation in the presence of BFA (in cells) [3] [min],half-time of disappearance of the complex after the pulse (in cells) [4] [min],half-time of disappearance of the complex after the pulse (in cells) [5] [min],percent of heavy chains in the oligomeric species in the pulse-labeled sample [6] [%]
beta 2-microglobulin (from UniProt P01887 21-119) (natural protein),2 to 5,–,–,–,–,–,–,–
B1,–,20,23,45,42,38,45,20 to 60

# Source: article PMC2288894
